1 molecule from patent US5612190 can be followed below.

The term Kd denotes the free concentration of one partner at which half of the binding sites on the other are occupied at equilibrium, for simple one-to-one binding. Higher therefore signals lower affinity.

For this assay, the target named is group I phospholipase A2. Nature of the assay: 125I-PLA2-I binding in COS7 culture supernatant, polyethylene glycol coprecipitation.

B1: secretion type PLA2-I receptor protein (receptor)
chain: ETAAWAVTPERLREWQDKGIFIIQSENLEKCIQASKSTLTLENCKPPNKYMLWKWVSNHRLFNIGGSGCLGLNVSSPEQPLSIYECDSTHVSLKWHCNKKTITGPLQYLVQVKQDNTLVASRKYLHKWVSYMSGGGGICDYLHKDLYTIKGNAHGTPCMFPFQYNQQWHHECTREGREDNLLWCATTSRYERDEKWGFCPDPTSTEVGCDAVWEKDLHSRICYQFNLLSSLSWSEAHSSCQMQGAALLSIADETEENFVRKHLGSEAVEVWMGLNQLDEDAGWQWSDRTPLNYLNWKPEINFEPFVEYHCGTFNAFMPKAWKSRDCESTLPYVCKKYLNPTDHGVVEKDAWKYYATHCEPGWNPHNRNCYKLQKEKKTWNEALQSCQSNNSVLTDITSLAEVEFLVTLLGDENASETWIGLSSHKIPVSFEWSNGSSVTFTNWHTLEPHIFPNRSQLCVSAEQSEGHWKVKNCEETLFYLCKKTGLVLSDTESGCQKGWERHGKFCYKIDTVLRSFDHASSGYYCPPALITITSRFEQAFITSLISSVVKTKDTYFWIALQDQNNTGEYTWKTAGQQLEPVKYTHWNTRQPRYSGGCVVMRGRSHPGRWEVRDCRHFKAMSLCKQPVENREKTKQEEGWPFHPCYLDWESEPGLASCFKVFHSEKVLMKRTWRQAEEFCEEFGAHLASFAHIEEENFVNELLHSKFNRTEERQFWIGFNKRNPLNAGSWEWSDGTPVVSSFLDNSYFGEDARNCAVYKANKTLLPSYCGSKREWICKIPRDVRPKVPPWYQYDAPWLFYQDAEYLFHISASEWSSFEFVCGWLRSDILTIHSAHEQEFIHSKIRALSKYGVNWWIGLREERASDEFRWRDGSPVIYQNWDKGKERSMGLNESQRCGFISSITGLWASEECSISMPSICKRKKVWVIEKKKDIPKQHGTCPKGWLYFDYKCLLLKIPEGPSDWKNWTSAQDFCVEEGGTLVAIENEVEQAFITMNLFGHTTNVWIGLQDDDYEKWLNGRPVSYSNWSPFDTKNIPNHNTTEVQKRIPLCGLLSNNPNFHFTGKWYFEDCREGYGFVCEKMQDASGHSINTSDMYPIPNTLEYGNRTYKIINANMTWYTALKTCLMHGAELASITDQYHQSFLTVILNRVGYAHWIGLFTEDNGLSFDWSDGTKSSFTFWKDDESSFLGDCVFADTSGRWSSTACESYLQGAICQVPTETRLSGRLELCSETSIPWIKFKSNCYSFSTVLESTSFEAAHEFCKKKGSNLLTIKDEAENSFLLEELLAFRSSVQMIWLNAQFDGDNETIKWFDGTPTDQSNWGIRKPEVYHFKPHLCVALRIPEGVWQLSSCQDKKGFICKMEADIHTVKKHPGK
In turn, B1 yielded a Kd of 0.8 nM.
